Data: patent US9611303B2, “Modified biotin-binding protein” (Japan Tobacco Inc., priority 2009, dated 2017)
Positions count from the first letter of the chain named. Numbers in names are those of the source.

B1: TM2 S36A-D116A: TM2 with 36th serine and 116th aspartic acid replaced with alanine; SEQ ID NO: 20 (protein)
chain: MSDVQSSLTGTWYNELNSKMELTANKDGTLTGKYLAKVGDVYVPYPLSGRYNLQPPAGQGVALGWAVSWENSKIHSATTWSGQFFSESSPVILTQWLLSSSTARGDVWESTLVGNASFTKTAPTEQQIAHAQLHCRAPRLK
modifications: Synthetic TM2 S36A-D116A
B2: TM2 W80K: TM2 in which the 80th tryptophan was replaced with lysine; amino acid sequence SEQ ID NO: 4 (protein)
chain: B1 chain with A36S, W80K, A116D
modifications: Synthetic TM2 W80K
B3: TM2P46T-T78A-D116A: TM2 with P46T, T78A and D116A replacements; SEQ ID NO: 18 (protein)
chain: B1 chain with A36S, P46T, T78A
modifications: Synthetic TM2 P46T-T78A-D116A
B4: TM2P46T-D116A: TM2 with 46th proline replaced with threonine and 116th aspartic acid with alanine; SEQ ID NO: 16 (protein)
chain: B1 chain with A36S, P46T
modifications: Synthetic TM2 P46T-D116A
B5: TM2 S36A: TM2 in which the 36th serine was replaced with alanine; SEQ ID NO: 6 (protein)
chain: B1 chain with A116D
modifications: Synthetic TM2 S36A
B6: TM2 T78A-D116A: TM2 with 78th threonine and 116th aspartic acid replaced with alanine; SEQ ID NO: 22 (protein)
chain: B1 chain with A36S, T78A
modifications: Synthetic TM2 T78A-D116A
B7: TM2P46T-T78A: TM2 with 46th proline replaced with threonine and 78th threonine with alanine; SEQ ID NO: 14 (protein)
chain: B1 chain with A36S, P46T, T78A, A116D
modifications: Synthetic TM2 P46T-T78A
B8: TM2 D116A: TM2 in which the 116th aspartic acid was replaced with alanine; SEQ ID NO: 12 (protein)
chain: B1 chain with A36S
modifications: Synthetic TM2 D116A

What was measured:
Proteinase K = assay: Protease resistance of LATM2 (SDS-PAGE); conditions: 5 μM Proteinase K, 30° C., 15 min, presence or absence of biotin
Method: Throughout the specification, “having protease resistance” refers to that a protein is not enzymatically decomposed or not substantially decomposed by protease treatment. The protease treatment is performed by, for example, proteinase K treatment at 30° C. for 15 min. The term “not enzymatically decomposed” refers to that bands of a tetramer, dimer, and/or monomer of the protein can be clearly detected by SDS-PAGE after enzyme treatment, as in wild-type TM2. That is, a protein not having protease resistance is decomposed into small molecules by protease treatment, and bands of the tetramer, dimer, and monomer are not detected by SDS-PAGE after the protease treatment. […] Accordingly, bands of the tetramer and/or the dimer or monomer generated by dissociation of the tetramer are detected by SDS-PAGE. […] of each of the LATM2s (TM2 S36A, TM2 […], TM2 […], TM2 […], TM2 […], TM2 S36A-[…], TM2 […], and […]) purified by biotin-agarose was subjected to a reaction in 50 mM Tris-HCl (pH 8.0) containing 5 μM Proteinase K and 5 mM CaCl2 at 30° C. for 15 min. […] Then, an SDS buffer was added to each reaction solution, followed by heat treatment at 95° C. for 10 min to terminate the reaction. The resulting sample was subjected to SDS-PAGE, followed by CBB staining.

[1] = Purification of LATM2 with 2-iminobiotin-agarose; assay type: binding; conditions: for Recovery rate (%): Iminobiotin-agarose, binding at pH 12, elution with 50 mM NH4OAC (pH 4)
Method: LATM2 was purified through a column charged with 2-iminobiotin-agarose (manufactured by Sigma-Aldrich Corp.) in accordance with the method by Hofmann, et al., (1980). IPTG was added to 25 mL of a culture solution of E. coli transformed with each LATM2 in a final concentration of 1 mM to induce expression. The E. coli cells were collected by centrifugation, suspended in 1.5 mL of 50 mM CAPS (pH 12) containing 50 mM NaCl, and then sonicated. To the supernatant of the disrupted cells, 500 μL of 2-iminobiotin-agarose was added, which was then packed in a column. The column was sufficiently washed with 50 mM CAPS (pH 12) containing 500 mM NaCl, and elution was then performed with 50 mM NH4OAC (pH 4).
(§1) The recovery rate in Table 2 was calculated by dividing the amount of LATM2 protein after purification by the amount of LATM2 protein before purification and was expressed by percent by multiplying the quotient by 100. The degree of purification was the ratio of the amount of LATM2 protein to the total amount of proteins in the purified fraction and was expressed by percent by multiplying the ratio by 100. The recovery rates and the degrees of purification in biotin-agarose were the results after binding at pH 7 and elution with an excess amount of biotin.

[2] = Purification of LATM2 with biotin-agarose; assay type: binding
Method: Purification with biotin-agarose (manufactured by Sigma-Aldrich Corp.) was performed by the following procedure. After induced expression of 25 mL of a culture solution of E. coli for each LATM2, the E. coli cells were suspended in 1.5 mL of a 100 mM potassium phosphate buffer (pH 7.0), and then sonicated. To the supernatant of the disrupted cells. 400 μL of biotin-agarose was added, which was followed by upside-down mixing for 1 hr. […]
In TM2 S36A-T78A-D116A, the E. coli cells were suspended in 1.5 mL of 50 mM CAPS (pH 12) containing 50 mM NaCl, and then sonicated. To the disrupted cells, 400 μL of biotin-agarose was added, which was followed by upside-down mixing for 1 hr. The column was sufficiently washed with 50 mM CAPS (pH 12) containing 500 mM NaCl, and elution was then performed with 1 mL of PBS (pH 7.4) containing 10 mM biotin.
In TM2 S36A-D116A, the E. coli cells were suspended in 1.5 mL of a 100 mM potassium phosphate buffer (pH 4.0), and then sonicated. To the pupernatant of the disrupted cells, 400 μL of biotin-agarose was added. Washing was performed with a 100 mM potassium phosphate buffer (pH 4) containing 500 mM NaCl, and elution was performed with 1 mL of PBS (pH 7) containing 10 mM biotin. Biotin binding to LATM2 that has been eluted with an excess amount of biotin was removed by dialysis with a 20 mM potassium phosphate buffer overnight.
as §1

[3] = Subunit association by FPLC on Sephacryl S-100HR; assay type: physicochemical; conditions: for Structure (identified by FPLC): Sephacryl S-100HR, 50 mM potassium phosphate, 500 mM NaCl; for Sephacryl (mL), elution peak position: tetramer 44 to 47 mL, dimer 51 to 54 mL, monomer 63 to 66 mL
Method: In order to analyze the subunit association conditions of LATM2, the molecular weight of each LATM2s was measured by FPLC. Sephacryl S-100HR (manufactured by GE Healthcare) was used as a column, a Gel Filtration Calibration Kit LMW (manufactured by GE Healthcare) was used as molecular weight markers, and 50 mM potassium phosphate containing 500 mM NaCl was used as a buffer.
The positions of the peaks of eluted tetramer were defined to be 44 to 47 mL after injection of WT-TM2 as a control. The peak of an eluted monomer appeared at around 63 to 66 mL and the peak of an eluted dimer appeared at around 51 to 54 mL, from result of loading the molecular weight markers.

[4] = pH-dependence of binding to biotin-agarose
Method: E. coli cells were collected from 25 mL of an E. coli culture solution in which expression TM2 S36A-D116A was induced with 1 mM IPTG, were suspended in 1.5 mL of a 100 mM potassium phosphate buffer ([…]) or 1.5 mL of a 50 mM CAPS (pH 12.0), and then were sonicated. The disrupted cells were centrifugated, and 400 μL of biotin-agarose was added to the supernatant. […] Furthermore, the TM2 S36A-D116A protein was dissociated from the carrier by increasing the pH of the reaction solution to 7.0 or 12.0 and was recovered at an efficiency of 95%.
TM2 S36A-T78A-D116A was also investigated for its pH-dependence. The protein was suspended in a buffer of pH 4.0 or pH 12.0 and was sonicated. […] By utilizing this property, high purity TM2 S36A-T78A-D116A was obtained by binding the protein to biotin-agarose at pH 4.0 and eluting it at pH 7.0 (FIG. 3B).

[5] = Biotin-agarose, binding at pH 7, recovery with 10 mM biotin

Row | binding to 2-iminobiotin-agarose [1] | recovery rate by binding at pH 4, elution at pH 7 (without biotin) ([2]; Biotin-agarose) [%] | recovery rate by binding at pH 4, elution at pH 7 (without biotin) ([2]; Biotin-agarose, listed as S36AD116A) | binding to biotin-agarose ([4]; extract at pH 4.0, pH 5.0, or pH 6.0) | binding to biotin-agarose ([4]; extract at pH 7.0 or pH 12.0) | recovery efficiency on dissociation from the carrier ([4]; increasing the pH to 7.0 or 12.0) [%] | binding to biotin-agarose [2] | recovery rate by binding at pH 12, extraction with acetic acid ([2]; Biotin-agarose) | Molecule | decomposition by Proteinase K (Proteinase K) | Recovery rate (%) [1] [%] | Recover rate (%) [2, 5] [%] | Structure (identified by FPLC) [3] | Sephacryl (mL), elution peak position [3] [mL] | recover rate by elution with acetic acid ([2]; Biotin-agarose, elution with acetic acid) | elution from biotin-agarose with an excess amount of biotin [2] | Structure (identified by FPLC) ([3]; listed as S36A) | Note (Iminobiotin-agarose) ([1]; FT = column flow-through fraction) | Note (Biotin-agarose) ([2]; binding at pH 7, recovery with 10 mM biotin, FT = flow-through) | Structure (identified by FPLC) ([3]; listed as D116A)
1 | did not bind | 95 | recovery rate: 95% | efficiently bound to biotin-agarose | did not bind to biotin-agarose at all | 95 |  |  | B1 | approximate a half thereof was decomposed | 0 | 0 | Tetramer | 46.31 |  |  |  |  |  | 
2 |  |  |  |  |  |  |  |  | B2 | hardly decomposed | 95 | 50 | Tetramer | 44.4 | recover rate: 95% |  |  |  |  | 
3 |  |  |  |  |  |  |  |  | B3 | hardly decomposed | 95 | 95 | Tetramer | 48.24 |  |  |  |  |  | 
4 |  |  |  |  |  |  |  |  | B4 | hardly decomposed | 95 | 95 | Tetramer | 46.23 |  |  |  |  |  | 
5 |  |  |  |  |  |  | efficiently adsorbs to biotin-agarose |  | B5 | hardly decomposed | 95 | 95 | tetramer | 46.17 |  | eluted by addition of an excess amount of biotin | Tetramer |  |  | 
6 | did not bind |  |  |  |  |  |  |  | B6 | hardly decomposed | 0 | 95 | Tetramer | 46.37 |  |  |  | To FT |  | 
7 |  |  |  |  |  |  |  | recovery rate: 70% | B7 | hardly decomposed | 95 | 5 | Tetramer | 46.05 |  |  |  |  | note eluted | 
8 |  |  |  |  |  |  |  |  | B8 | hardly decomposed | 95 | 95 | tetramer | 46.22 |  |  |  |  |  | Tetramer
